Data published in US20160024200A1 (published 2016).

Columns and labels:
[1] = biological target: T1, human granulocyte macrophage colony-stimulating factor (GM-CSF) (human, UniProt P04141 18-144); assay: SPR, Biacore 3000, mAb captured on anti-human IgG, GM-CSF as analyte, 25 C
T1 construct: also called rhGM-CSF
Procedure: The SPR experiments were performed at 25° C. on a Biacore 3000 (GE Healthcare, Piscataway, N.J.) using a CM5 sensor chip and HBS-P (10 mM HEPES, pH 7.4, 150 mM NaCl, 0.01% P-20) or HBS-EP (10 mM HEPES, pH 7.4, 150 mM NaCl, 3 mM EDTA, 0.01% P-20). Anti-human IgG (Fc) (GE Healthcare) or anti-human IgG (Southern Biotech, cat. #2040-01) was immobilized similarly on the experimental and reference flow cells using standard amine coupling. […] GM-CSF made in-house or purchased (Genscript, Cat. #Z00349), was injected over the mAb-coated cell and reference cell at the following concentrations: 100, 50, 25, 12.5, 6.25, 3.12, 1.5 and 0.8 nM. The flow rate was 30 μL/min and triplicate blank injections and replicate injections of the 12.5 nM GM-CSF were included to account for any drift and to ensure assay reproducibility. […] To regenerate the capture surface, two 30 sec pulses of a 2:1 mixture of glycine (pH 2) to 3 M MgCI was utilized. All data were double reference subtracted in that they were subtracted both from the reference cell and from a blank injection. Data were fit to a 1:1 model with (for those with very fast on-rates) or without a mass transport term using the Biacore 3000 evaluation software.

[2] = biological target: T1, human granulocyte macrophage …; assay: cell-based or functional assay
[3] = biological target: T1, human granulocyte macrophage …; assay: cell-based or functional assay; remark: listed apart in the source
[4] = biological target: T1, human granulocyte macrophage …; assay: cell-based or functional assay; remark: listed apart in the source

T1 sequence (P04141 18-144 limits assumed): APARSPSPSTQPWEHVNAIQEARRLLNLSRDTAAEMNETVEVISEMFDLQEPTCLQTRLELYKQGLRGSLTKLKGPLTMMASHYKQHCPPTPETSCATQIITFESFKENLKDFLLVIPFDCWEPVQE

B1: F1 human monoclonal antibody against GM-CSF (antibody, V domains shown)
VH: QVQLQESGPGVVKPSETLSLTCSVSDSAIRKYYWSWIRQPPGQGLEYIGYIYASGSSFYNPSFKSRVSMSVDATNNQFYLKLTSVTAADTAVYYCAAITGTTDLWGRGTLVTVSS
VL: DIQMTQSPSSVSASVGDRVTITCRASQGINRRLAWYQQKPGKAPKRLIYAVSTLQSGVPSRFNGSGSGTDFTLTVNNVQPDDLAMYFCLQSNNYPLTFGGGTKVEIK
notes: also called F1 antibody; purified F1
Kd [1]: 120 pM | koff [1]: 0.0001 s⁻¹ | kon [1]: 830000 M⁻¹ s⁻¹ | IC50 (read off the curve); CD11b on human neutrophils in whole blood with 10 ng/mL GM-CSF (FACS), % inhibition [2]: ~50 ng/mL | IC50 (ng/mL), TF-1 assay [3]: 0.8 ng/mL | IC50, TF-1 assay [4]: < 1 ng/mL | IC50, TF-1 assay (200 pg/mL GM-CSF) [4]: 0.7 to 0.8 ng/mL
